Results: patent US20230390362A1, “USE OF TRIGONAL AGONIST HAVING ACTIVITIES TO ALL OF GLUCAGON, GLP-1, AND GIP RECEPTORS IN TREATMENT OF SEQUELAE FOLLOWING RESPIRATORY INFECTIOUS DISEASES” (HANMI PHARM. CO., LTD., priority 2020, published 2023)
Positions of bridges follow the written chain, without caps; N, C: chain ends. Non-standard residues stand in square brackets, D forms with d. No end group written: not given here. *: point of attachment. Acetyl(2-(4-imidazolyl)) = O=C(Cc1c[nH]cn1)*; Aib = CC(C)(N)C(=O)O

T1: human GIP receptor (human, UniProt P48546 22-466)
T1 sequence (looked up): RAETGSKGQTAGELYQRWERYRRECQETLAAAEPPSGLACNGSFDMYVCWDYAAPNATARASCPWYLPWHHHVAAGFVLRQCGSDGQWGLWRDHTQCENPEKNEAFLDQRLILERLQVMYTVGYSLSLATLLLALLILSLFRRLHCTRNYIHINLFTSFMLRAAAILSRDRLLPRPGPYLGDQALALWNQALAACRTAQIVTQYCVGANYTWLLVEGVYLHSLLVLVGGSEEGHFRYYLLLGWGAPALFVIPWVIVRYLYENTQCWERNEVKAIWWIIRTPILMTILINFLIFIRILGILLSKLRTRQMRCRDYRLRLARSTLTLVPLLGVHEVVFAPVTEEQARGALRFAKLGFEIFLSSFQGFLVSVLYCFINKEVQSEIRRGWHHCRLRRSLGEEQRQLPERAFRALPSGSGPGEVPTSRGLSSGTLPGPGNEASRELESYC


Experiments:
Test in all cases: cell-based or functional assay
[1] = target: human GCG receptor (human, UniProt P47871 26-477)
[2] = target: T1, human GIP receptor
[3] = target: human GLP-1 receptor (human, UniProt P43220 24-463)

Sequence of human GCG receptor (P47871 26-477): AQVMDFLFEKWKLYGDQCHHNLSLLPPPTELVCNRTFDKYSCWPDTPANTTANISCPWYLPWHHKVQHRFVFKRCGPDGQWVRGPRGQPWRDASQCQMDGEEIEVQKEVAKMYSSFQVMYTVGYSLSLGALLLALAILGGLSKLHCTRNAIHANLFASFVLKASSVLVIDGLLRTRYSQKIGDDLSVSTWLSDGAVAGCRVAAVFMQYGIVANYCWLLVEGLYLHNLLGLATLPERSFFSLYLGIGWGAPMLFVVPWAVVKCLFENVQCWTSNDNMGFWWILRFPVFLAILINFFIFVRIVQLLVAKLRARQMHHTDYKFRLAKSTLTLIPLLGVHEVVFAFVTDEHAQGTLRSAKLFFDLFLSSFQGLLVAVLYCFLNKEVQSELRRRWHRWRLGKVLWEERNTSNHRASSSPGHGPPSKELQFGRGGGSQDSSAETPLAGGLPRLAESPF

Row | Binder | In vitro activity relative to native peptide (%), vs. Glucagon (cAMP EC50) [1] | In vitro activity relative to native peptide (%), vs. GIP (cAMP EC50) [2] | In vitro activity relative to native peptide (%), vs. GLP-1 (cAMP EC50) [3]
1 | H[Aib]QGTFTSDVSSYLDGQAAKEFIAWLVKGC [trigonal agonist of SEQ ID NO: 1] | < 0.1% | < 0.1% | 3.2%
2 | H[Aib]QGTFTSDVSSYLLGQQQKEFIAWLVKGC [trigonal agonist of SEQ ID NO: 4] | < 0.1% | < 0.1% | 8.5%
3 | H[Aib]QGTFTSDYSKYLDEKRQKEFVNWLLAQKC (bridge 16-20) [trigonal agonist of SEQ ID NO: 34] | 0.92% | 0.6% | 19.1%
4 | H[Aib]QGTFTSDYSIAMDEIHQKDFVNWLLNTKC (bridge 16-20) [trigonal agonist of SEQ ID NO: 35] | < 0.1% | 1.3% | 7.5%
5 | H[Aib]QGTFTSDYSKYLCEKRQKEFVQWLLNGGPSSGAPPPSG (bridge 16-20) [trigonal agonist of SEQ ID NO: 36] | 0.39% | 0.2% | 37.4%
6 | H[Aib]QGTFTSDYSKYLDECRQKEFVQWLLNGGPSSGAPPPSG (bridge 16-20) [trigonal agonist of SEQ ID NO: 37] | 6.21% | 2.2% | 236%
7 | {Acetyl(2-(4-imidazolyl))}-[Aib]QGTFTSDKSSYLDERAAQDFVQWLLDGGPSSGAPPPSS [trigonal agonist of SEQ ID NO: 38] | – | – | 2.3%
8 | H[Aib]QGTFTSDYSKYLDGQHAQCFVAWLLAGGGPSSGAPPPS [trigonal agonist of SEQ ID NO: 39] | 0.53% | < 0.1% | 13.9%
9 | H[Aib]QGTFTSDKSKYLDERACQDFVQWLLDGGPSSGAPPPS [trigonal agonist of SEQ ID NO: 40] | < 0.1% | < 0.1% | 75.2%
10 | H[Aib]QGTFTSDKSKYLDECAAQDFVQWLLDGGPSSGAPPPS [trigonal agonist of SEQ ID NO: 41] | < 0.1% | < 0.1% | 34.3%
11 | Y[Aib]QGTFTSDYSKYLDEKRAKEFVQWLLDHHPSSGQPPPSC (bridge 16-20) [trigonal agonist of SEQ ID NO: 42] | 206% | 7.8% | 33.9%
12 | Y[Aib]QGTFTSDYSKYLDEKRAKEFVQWLLDHHCSSGQPPPS (bridge 16-20) [trigonal agonist of SEQ ID NO: 43] | 88.4% | 3.7% | 12.6%
13 | HGQGTFTSDCSKQLDGQAAQEFVAWLLAGGPSSGAPPPS [trigonal agonist of SEQ ID NO: 44] | < 0.1% | < 0.1% | 1.3%
14 | H[Aib]QGTFTSDVSSYLLGQQQKEFIAWLVKGGGPSSGAPPPSC [trigonal agonist of SEQ ID NO: 5] | < 0.1% | < 0.1% | 42.1%
15 | HGQGTFTSDCSKYMDGQAAQDFVAWLLAGGPSSGAPPPS [trigonal agonist of SEQ ID NO: 45] | < 0.1% | < 0.1% | 6.6%
16 | HGQGTFTSDCSKYLDEQHAQEFVAWLLAGGPSSGAPPPS [trigonal agonist of SEQ ID NO: 46] | < 0.1% | < 0.1% | 1.4%
17 | HGQGTFTSDCSKYLDGQRAQEFVAWLLAGGPSSGAPPPS [trigonal agonist of SEQ ID NO: 47] | < 0.1% | < 0.1% | 2.4%
18 | HGQGTFTSDCSKYLDGQRAQDFVNWLLAGGPSSGAPPPS [trigonal agonist of SEQ ID NO: 48] | < 0.1% | < 0.1% | 1.5%
19 | {Acetyl(2-(4-imidazolyl))}-[Aib]QGTFTSDYSICMDEIHQKDFVNWLLNTK (bridge 15-19) [trigonal agonist of SEQ ID NO: 49] | < 0.1% | 3.3% | 29.8%
20 | H[Aib]QGTFTSDYSKYLDEKRAKEFVQWLLDHHPSSGQPPPSC (bridge 16-20) [trigonal agonist of SEQ ID NO: 50] | 50.5% | 2.7% | 67.4%
21 | H[Aib]QGTFTSDYSKYLDEKRQKEFVQWLLNTC (bridge 16-20) [trigonal agonist of SEQ ID NO: 51] | 2% | 0.1% | 14.4%
22 | H[Aib]QGTFTSDYSKYLDEKRQKEFVQWLLDTC (bridge 16-20) [trigonal agonist of SEQ ID NO: 52] | 7.5% | 0.3% | 44.1%
23 | H[Aib]EGTFTSDYSIAMDEIHQKDFVNWLLAQC (bridge 16-20) [trigonal agonist of SEQ ID NO: 53] | 8.4% | 1.3% | 161%
24 | H[Aib]EGTFTSDYSIAMDEIHQKDFVDWLLAEC (bridge 16-20) [trigonal agonist of SEQ ID NO: 54] | 1.4% | 0.1% | 30.6%
25 | H[Aib]QGTFTSDVSSYLDGQAAKEFVAWLLKGC [trigonal agonist of SEQ ID NO: 6] | < 0.1% | < 0.1% | 17%
26 | H[Aib]QGTFTSDYSIAMDEIHQKDFVNWLLAQC (bridge 16-20) [trigonal agonist of SEQ ID NO: 55] | 0.7% | 2.4% | 27.1%
27 | H[Aib]QGTFTSDYSKYLDEKRQKEFVNWLLAQC (bridge 16-20) [trigonal agonist of SEQ ID NO: 56] | 4.9% | 0.8% | 57.9%
28 | H[Aib]QGTFTSDYSIAMDEIHQKDFVNWLLNTC (bridge 16-20) [trigonal agonist of SEQ ID NO: 57] | < 0.1% | 0.3% | 11.7%
29 | H[Aib]QGTFTSDYSKYLDEKRQKEFVQWLLNTKC (bridge 16-20) [trigonal agonist of SEQ ID NO: 58] | 2.6% | 0.2% | 39.1%
